Tested on: K4 kissing-loop RNA reporter
Test: apparent KD of K4 kissing-loop reporter; higher = weaker reporter binding
Settings: Eterna round: R107
Description: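 RNA-MaP round R107: designed RNA switches with theophylline, tryptophan, arginine or FMN aptamers are transcribed on-chip within common flanks. They are titrated with a labelled K4 kissing-loop RNA reporter in RNA-MaP buffer (100 mM Tris pH 7.5, 80 mM KCl, 4 mM MgCl2), without ligand or with the indicated ligand. Median apparent KD per design.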

[1] = input ligand: theophylline 20 uM
[2] = input ligand: tryptophan 2.4 mM
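Note: bound reporter read as fluorescence of individual clusters on recovered sequencing chips by microscopy, with normalized cluster intensities fitted with a binding model.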

## UGUCAUUGGUCGGCCGCCACUAGAAGGUCAAAGACCAUGGAGUGAUGUUCUAAGACGAAAGUCACUAGGACCGGGACCGAUGACU [TrypBS 5 #SwitchBubble #K4Middle]
Input ligand: FMN 200 uM
  apparent KD of K4 kissing-loop reporter: 1640 nM
Input ligand: arginine 13.2 mM
  apparent KD of K4 kissing-loop reporter: 689 nM
Input ligand: none
  apparent KD of K4 kissing-loop reporter: 1450 nM
[1]
  apparent KD of K4 kissing-loop reporter: 918 nM
[2]
  apparent KD of K4 kissing-loop reporter: 575 nM

## CGCGCGGGUUUGAGAGGGUUUGCGCGAAGUGAGGAUAUUUAGGGAGAAAGAAGGCACUAUAAAAUAUAGUGAUGUUAUAUAAGGG [SSFMNA.I]
Input ligand: FMN 200 uM
  apparent KD of K4 kissing-loop reporter: 627 nM
Input ligand: arginine 13.2 mM
  apparent KD of K4 kissing-loop reporter: 117 nM
Input ligand: none
  apparent KD of K4 kissing-loop reporter: 251 nM
[1]
  apparent KD of K4 kissing-loop reporter: 139 nM
[2]
  apparent KD of K4 kissing-loop reporter: 269 nM

## GCGGGCCCUGGAGGAUAUGAGUCGAGUGAUGUUCGGCGGUCCAUGCCGAUGCGGCGUUAUGCCCUUUUAGAAGGCCAGGGUCCGC [#2 Exclusion - FMN B Attempt #8 (HarryS)]
Input ligand: FMN 200 uM
  apparent KD of K4 kissing-loop reporter: 543 nM
Input ligand: arginine 13.2 mM
  apparent KD of K4 kissing-loop reporter: 234 nM
Input ligand: none
  apparent KD of K4 kissing-loop reporter: 283 nM
[1]
  apparent KD of K4 kissing-loop reporter: 302 nM
[2]
  apparent KD of K4 kissing-loop reporter: 289 nM

## AAAUACAUUUUAUUAUAUAACUUUUCAGAAGGAGCGUGGAAGUUCACAGGUAGGUCGCUGAAUAUUGGACUAGUGAUGUUAGUUA [JR_Nu_SSArginiA_Sub021]
Input ligand: FMN 200 uM
  apparent KD of K4 kissing-loop reporter: 222 nM
Input ligand: arginine 13.2 mM
  apparent KD of K4 kissing-loop reporter: 217 nM
Input ligand: none
  apparent KD of K4 kissing-loop reporter: 253 nM
[1]
  apparent KD of K4 kissing-loop reporter: 225 nM
[2]
  apparent KD of K4 kissing-loop reporter: 179 nM

## UGGAGUUGACGAAAAGUCAACUCCUGAGAAGGAGCGGACGAAAGUCCAGGUAGGUCGCUCACUACCAGUGAUGUUGGUACUAAAA
Input ligand: FMN 200 uM
  apparent KD of K4 kissing-loop reporter: 160 nM
Input ligand: arginine 13.2 mM
  apparent KD of K4 kissing-loop reporter: 157 nM
Input ligand: none
  apparent KD of K4 kissing-loop reporter: 141 nM
[1]
  apparent KD of K4 kissing-loop reporter: 66.6 nM
[2]
  apparent KD of K4 kissing-loop reporter: 203 nM

## AAGCGUGUGGCGGCCGCCACUAGUCUCCAGUGAUGUUGGAGAUAUCACGUAAGUGAUAUCCGACAUAGGACCGGGCCAUAUGGAA [Same State - Tryptophan B (Freestyle 22)]
Input ligand: FMN 200 uM
  apparent KD of K4 kissing-loop reporter: 587 nM
Input ligand: arginine 13.2 mM
  apparent KD of K4 kissing-loop reporter: 299 nM
Input ligand: none
  apparent KD of K4 kissing-loop reporter: 813 nM
[1]
  apparent KD of K4 kissing-loop reporter: 612 nM
[2]
  apparent KD of K4 kissing-loop reporter: 207 nM

## UGUGAUGAGUAGAGUGAUGUUUUGAAGGAUACCAGAGUGUUGUUAUUCCCUUGGCAGCUUGAGUGAUGUUUGAUGUUGUUGUAGU [zizmullin]
Input ligand: FMN 200 uM
  apparent KD of K4 kissing-loop reporter: 303 nM
Input ligand: arginine 13.2 mM
  apparent KD of K4 kissing-loop reporter: 213 nM
Input ligand: none
  apparent KD of K4 kissing-loop reporter: 248 nM
[1]
  apparent KD of K4 kissing-loop reporter: 246 nM
[2]
  apparent KD of K4 kissing-loop reporter: 196 nM

## UUUGGUAUCUCGGCCGCCACUCGUGGGAAAUGGGCCUCAGGGAUAUAGUGAUGUUAUGUAAAGAAGAGGACCGGGAGAAGGAAGG [ExTryptoB.Dk]
Input ligand: FMN 200 uM
  apparent KD of K4 kissing-loop reporter: 343 nM
Input ligand: arginine 13.2 mM
  apparent KD of K4 kissing-loop reporter: 232 nM
Input ligand: none
  apparent KD of K4 kissing-loop reporter: 355 nM
[1]
  apparent KD of K4 kissing-loop reporter: 481 nM
[2]
  apparent KD of K4 kissing-loop reporter: 208 nM

## UAUGUCAUUCUCGACGGAGUGAUGUUCCGACGAGGACCGGUACGGCCGCCACUCGGCAGAAUUGAGUCUGUGAUCCUAGAUCAAU [theeternabot_exclusion_KL_Trp_A_44]
Input ligand: FMN 200 uM
  apparent KD of K4 kissing-loop reporter: 120 nM
Input ligand: arginine 13.2 mM
  apparent KD of K4 kissing-loop reporter: 99.3 nM
Input ligand: none
  apparent KD of K4 kissing-loop reporter: 116 nM
[1]
  apparent KD of K4 kissing-loop reporter: 103 nM
[2]
  apparent KD of K4 kissing-loop reporter: 200 nM

## UGACAUUGCUCAGAUACCAGACUUGAGGAUCACCCAAGUGCCAAAUAAACGUACAUAAAAGUCCCUUGGCAGCUGAGCAAUGUCU [TheoBX 11]
Input ligand: FMN 200 uM
  apparent KD of K4 kissing-loop reporter: 72.9 nM
Input ligand: arginine 13.2 mM
  apparent KD of K4 kissing-loop reporter: 46.3 nM
Input ligand: none
  apparent KD of K4 kissing-loop reporter: 41.3 nM
[1]
  apparent KD of K4 kissing-loop reporter: 99 nM
[2]
  apparent KD of K4 kissing-loop reporter: 33.4 nM

## CCAUCGCUAUUCGAUACCAGCCAGGAGGUCUUUGGCCUCCUAUUGGAGUGAUGUUCCAUAGGCCCUUGGCAGCGAAUAGUGAUGG [Theophylline B K4 16]
Input ligand: FMN 200 uM
  apparent KD of K4 kissing-loop reporter: 372 nM
Input ligand: arginine 13.2 mM
  apparent KD of K4 kissing-loop reporter: 187 nM
Input ligand: none
  apparent KD of K4 kissing-loop reporter: 283 nM
[1]
  apparent KD of K4 kissing-loop reporter: 542 nM
[2]
  apparent KD of K4 kissing-loop reporter: 374 nM

## UGGGUGUAGUGAUGUUAUAUAGAGAAUGAUACCAGCUUAGAGAGGAGCCCUUGGCAGCGUAGACGAGUAUCAUUGGAGGAGGAGG [#22 K4 Theophylline A Exclusion]
Input ligand: FMN 200 uM
  apparent KD of K4 kissing-loop reporter: 714 nM
Input ligand: arginine 13.2 mM
  apparent KD of K4 kissing-loop reporter: 924 nM
Input ligand: none
  apparent KD of K4 kissing-loop reporter: 965 nM
[1]
  apparent KD of K4 kissing-loop reporter: 724 nM
[2]
  apparent KD of K4 kissing-loop reporter: 647 nM

## UGCUUUAUCAGAAGGAGCGCGUUAUUCAUAAUAAUAAUCAGUGAUGUUGAUAUAUGAUGAUUGCAGGUAGGUCGCUGAUAUAGCU [KL-XARG-B3]
Input ligand: FMN 200 uM
  apparent KD of K4 kissing-loop reporter: 310 nM
Input ligand: arginine 13.2 mM
  apparent KD of K4 kissing-loop reporter: 225 nM
Input ligand: none
  apparent KD of K4 kissing-loop reporter: 274 nM
[1]
  apparent KD of K4 kissing-loop reporter: 253 nM
[2]
  apparent KD of K4 kissing-loop reporter: 259 nM

## GACUCAUGUAGAAGGAGCGUCAGAAGCUACAGACAUGAGUGAUGUUCAUGUUAGUUGAUUUGACAGGUAGGUCGCUACAGCAGGA [KL-SSArg B15 #analogue]
Input ligand: FMN 200 uM
  apparent KD of K4 kissing-loop reporter: 280 nM
Input ligand: arginine 13.2 mM
  apparent KD of K4 kissing-loop reporter: 207 nM
Input ligand: none
  apparent KD of K4 kissing-loop reporter: 247 nM
[1]
  apparent KD of K4 kissing-loop reporter: 283 nM
[2]
  apparent KD of K4 kissing-loop reporter: 229 nM

## UUGAUAUGAUAGUAUCCUGUUUGAUAAAGGCAGGAUAUCGAAAAUUCGAGAAGGGCCAUUAUAUGCAGUGAUGUUGCAAAUAAGU [Exclusion FMN A Gf 24]
Input ligand: FMN 200 uM
  apparent KD of K4 kissing-loop reporter: 76.8 nM
Input ligand: arginine 13.2 mM
  apparent KD of K4 kissing-loop reporter: 68.4 nM
Input ligand: none
  apparent KD of K4 kissing-loop reporter: 52.6 nM
[1]
  apparent KD of K4 kissing-loop reporter: 69 nM
[2]
  apparent KD of K4 kissing-loop reporter: 43.6 nM

## GCCGUAGAUUGAAGGAGCGCUAGUAGUGAUGUUGCUUGCACUUCUUGUGUAAGAAGAACCUAGCAGGUAGGUCGCAAUCUACGGC
Input ligand: FMN 200 uM
  apparent KD of K4 kissing-loop reporter: 700 nM
Input ligand: arginine 13.2 mM
  apparent KD of K4 kissing-loop reporter: 270 nM
Input ligand: none
  apparent KD of K4 kissing-loop reporter: 728 nM
[1]
  apparent KD of K4 kissing-loop reporter: 703 nM
[2]
  apparent KD of K4 kissing-loop reporter: 499 nM

Reference: the supplement of paper PMC9170038
